From the supplement of paper PMC10567573
± gives the standard deviation.

Test: protein stability index of a GFP-peptide fusion (GPS, HEK-293T) (PSI 1-6); higher = more stable
[1] = treatment: DMSO, c terminus: a fixed tail appended
[2] = treatment: MLN4924 1 uM, 8 h, c terminus: a fixed tail appended
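Further: 24-mer peptide tiles fused after GFP, lentivirally expressed, FACS-sorted into six equal bins by GFP/DsRed ratio, decoded by Illumina sequencing, PSI is the read-weighted mean bin number.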

Row | Sequence | protein stability index [1] | protein stability index [2] | protein stability index (treatment: DMSO, c terminus: native) | protein stability index (treatment: MLN4924 1 uM, 8 h, c terminus: native)
1 | LDVIERDLHRQFPFHEMFVSRGGH [TBC1D10A] | 2.98 ± 0.3 | 2.86 ± 0.21 |  | 
2 | VELVNAACNFEPHESFFSLFSDPR [ZER1] | 2.45 ± 0.13 | 2.54 ± 0.2 |  | 
3 | TSTRYEQPKCDNTARAHPAKARDL [SMOC2] | 4.85 ± 0.19 | 5.17 ± 0.27 |  | 
4 | PFGFQTVTSDVNKLSSFYSLKLIK [SERPINB5] | 2.15 ± 0.17 | 2.31 ± 0.41 |  | 
5 | ERPPPPPSDDLTLLESSSSYKNLT [MCOLN1] | 5 ± 0.21 | 4.93 ± 0.21 |  | 
6 | LALKLPDGSYALNGEYTLMPSPTD [ADAMTS4] | 2.35 ± 0.15 | 2.41 ± 0.28 |  | 
7 | GKVIVWDSFTTNKEHAVTMPCTWV [GNB5] | 2.55 ± 0.37 | 2.27 ± 0.36 |  | 
8 | PGVQAPEDLEWERYRGRGSEEYRA [CHGB] | 4.8 ± 0.17 | 5.18 ± 0.63 |  | 
9 | RNSLSAIFNNVMTLCAMLPLLLFT [SLC29A1] | 3.3 ± 0.65 | 3.33 ± 0.22 |  | 
10 | VERYHNLCQKQVKAQLPRRESERR [FBXO28] | 4.08 ± 0.31 | 3.99 ± 0.08 |  | 
11 | RLKCRSFKWYLENVYPEMRVYNNT [GALNT9] | 2.42 ± 0.17 | 2.19 ± 0.2 |  | 
12 | CVTPNGRPISGTAVAHKTPRCPGS [SMOC2] | 2.98 ± 0.67 | 3.89 ± 0.34 |  | 
13 | RSWMFRRGPLNSDRSDYFAAWGAR [TRIM43] | 2.5 ± 0.14 | 2.62 ± 0.47 |  | 
14 | EALRALQEGLWLDRGTRVVFIDFS [PKD2L1] | 2.3 ± 0.72 | 2.34 ± 0.35 |  | 
15 | NEYVAIKLEPIKSRAPQLHLEYRF [CSNK1G1] | 2.31 ± 0.3 | 2.53 ± 0.36 |  | 
16 | RLVRVFRIFKLSRHSKGLQILGQT [KCNA1] | 2.65 ± 0.57 | 2.29 ± 0.36 |  | 
17 | QACSLPASCCIDPREDGASVNDQC [TSPAN10] | 5.06 ± 0.27 | 5.11 ± 0.25 |  | 
18 | SASAKRVWNMTATRPKKMGSQLPK [FATE1] | 3.76 ± 0.27 | 3.79 ± 0.18 |  | 
19 | EVLIGAGYSTPADIWSTACMAFEL [SRPK2] | 3.14 ± 1.2 | 2.61 ± 0.88 |  | 
20 | ELQLEAANETYENNFDNLDFDLDL [ATF6] | 4.76 ± 0.26 | 5.08 ± 0.11 |  | 
21 | YLLMVTVILLPYVSKVTGWCRDRL [TMEM175] | 3.27 ± 0.62 | 3.22 ± 0.66 |  | 
22 | NIVEYLIQEQPGQEQVAGGEAQPG [FEM1A] | 4.33 ± 0.25 | 4.15 ± 0.47 |  | 
23 | VSQWYELVVFTASMEIYGSAVADK [CTDNEP1] | 3.26 ± 0.36 | 3.17 ± 0.48 |  | 

Row | Sequence | protein stability index [1] | protein stability index [2] | protein stability index (treatment: DMSO, c terminus: native) | protein stability index (treatment: MLN4924 1 uM, 8 h, c terminus: native)
24 | CEVWACNLDEEMKKIRQVIRKYNY [CNOT7] | 2.28 ± 0.19 | 2.23 ± 0.14 |  | 
25 | WFQNKRSKFKKLMKQGGAALEGSA [DLX1] | 2.62 ± 0.4 | 3.01 ± 0.36 |  | 
26 | LGFGSAKEAVTGSRLGQGIGPIHL [LOXL2] | 2.7 ± 0.26 | 2.64 ± 0.073 |  | 
27 | VLALADEAGYYFFNGNYKVDSPKN [ADAMTSL2] | 2.7 ± 0.23 | 2.86 ± 0.3 |  | 
28 | PQEAVLQQLHQLPRGRLDLATQSL [LRRC45] | 3.75 ± 0.15 | 3.74 ± 0.21 |  | 
29 | TGGLLPIKRTIRVLDVNNQSFREQ [NET1] | 2.92 ± 0.13 | 3.03 ± 0.24 |  | 
30 | PFTPLHIKVKPKRVGIFLDYEAGT [TRIM39] | 2.45 ± 0.28 | 2.67 ± 0.26 |  | 
31 | NKLLLSIIILLELAILGGLVYYKF [VTI1B] | 2.96 ± 0.57 | 2.84 ± 0.49 |  | 
32 | LYQKQPKIGYHLLYYLRASKAAAG [INTS3] | 2.55 ± 0.31 | 2.25 ± 0.33 |  | 
33 | KAAVSHWQQQSYLDSGIHSGATTT [CTNNB1] | 3.69 ± 0.2 | 3.78 ± 0.17 |  | 
34 | EDEAGGRFVAFSGEGQSLRKKGRK [UFD1] | 5.51 ± 0.25 | 5.41 ± 0.46 |  | 
35 | MTVEKEAPDAHFTVDKQNISLWPR [CD207] | 3.58 ± 0.36 | 3.86 ± 0.5 |  | 
36 | QFNVSGPGLLEEDNQWMTQINRLQ [NECAB1] | 3.02 ± 0.13 | 3.31 ± 0.19 |  | 
37 | RDSHGKGIPNAIISVEGINHDIRT [CPXM2] | 4.2 ± 0.21 | 4.17 ± 0.27 |  | 
38 | KLVDAIVSGDTSKLMKILQPQDVD [RIPK4] | 2.51 ± 0.31 | 2.38 ± 0.64 |  | 
39 | WRLLNPGEYVVTAKAEGFTASTKN [CPXM2] | 3.09 ± 0.43 | 3.03 ± 0.29 |  | 
40 | LIDHLALRARNYEYLIRLFQEWEA [TCF25] | 2.1 ± 0.27 | 2.43 ± 0.36 |  | 
41 | SFDYEQFHELQMQVTASDSGDPPL [PCDHGA10] | 4.89 ± 0.21 | 4.9 ± 0.15 |  | 
42 | LWKRMDKLEAEKRILQEKLDQPVS [CCDC6] | 3.81 ± 0.2 | 3.94 ± 0.35 |  | 
43 | VASMVLGECRQMSSSSQIGNDSFQ [CLCN6] | 2.87 ± 0.32 | 2.67 ± 0.27 |  | 
44 | MQAQASIEGAPEVTMSSLFKHILR [SLC25A25] | 2.36 ± 0.32 | 2.14 ± 0.13 |  | 
45 | CTPGGTTIYGLHALEQGGLRAATM [PYCR3] | 2.36 ± 0.73 | 2.25 ± 0.72 |  | 
46 | NICENTEGAIAVHCKAGLGRTGTL [CDC14A] | 3.13 ± 0.22 | 3.21 ± 0.3 |  | 

Row | Sequence | protein stability index [1] | protein stability index [2] | protein stability index (treatment: DMSO, c terminus: native) | protein stability index (treatment: MLN4924 1 uM, 8 h, c terminus: native)
47 | VDNARIVLQIDNARLAADDFRVKY [KRT18] | 2.58 ± 0.31 | 2.77 ± 0.21 |  | 
48 | TLMEEVLLLGLKDREGYTSFWNDC [GOLPH3] | 2.71 ± 0.58 | 2.72 ± 0.69 |  | 
49 | ECDNMLMLLSVSQSMSEEEREKVT [SEPHS2] | 4.58 ± 0.12 | 4.58 ± 0.24 |  | 
50 | RIFKLSRHSKGLQILGQTLKASMR [KCNA1] | 2.54 ± 0.4 | 2.65 ± 0.58 |  | 
51 | SSGNTVLLLILCMQHSFPEPGRLY [TMEM192] | 3.1 ± 0.73 | 3.09 ± 0.53 |  | 
52 | SVVGTVLAATQAEKAVANFDRTEW [ZC2HC1C] | 3.26 ± 0.21 | 3.26 ± 0.3 |  | 
53 | GDAFGSSASEPQPASQAASSSSAS [SNAP91] | 5.48 ± 0.16 | 5.32 ± 0.31 |  | 
54 | SPAPLDTCPSSSTASSISSSGGSS [DYRK1B] | 5.33 ± 0.16 | 5.35 ± 0.088 |  | 
55 | GGDLEEQQHAEGSPEPGTPAAPTP [DNAAF3] | 5.61 ± 0.26 | 5.54 ± 0.31 |  | 
56 | NVIDRMKESSPSGSKSQRYSGAYG [CHCHD3] | 4.13 ± 0.4 | 4.13 ± 0.15 |  | 
57 | SHAGKVVLRSWYEKNKHIFPASRW [FAM50A] | 2.4 ± 0.3 | 2.58 ± 0.21 |  | 
58 | AVLDCLLDFLPKDVKKEKLSPDIM [TENT5D] | 2.99 ± 0.65 | 2.63 ± 0.52 |  | 
59 | PGHSGVSCEEVAASSASLEPMWSG [EMID1] |  | 5.08 ± 0.08 |  | 
60 | IGTPPSVLKRQRKRRVALSPVTEN [MYBL2] | 4.22 ± 0.56 | 4.49 ± 0.14 |  | 
61 | LDFCDFTAEMARVLTDSNHVPLQR [FBXO33] | 3.07 ± 0.46 | 3.26 ± 0.34 |  | 
62 | ATECEFVGSLPVIVVGRLKVALEP [LPCAT4] | 2.36 ± 0.56 | 2.36 ± 0.59 |  | 
63 | AVETRLSLLNMTFMKYVDSNLCCF [FBXO28] | 2.99 ± 1.8 | 2.57 ± 1.3 |  | 
64 | HFDATNLHKQTASDLLDEKEIAKN [FEM1C] | 5.38 ± 0.15 | 5.31 ± 0.29 |  | 
65 | LGVAVAVLGGFLYAVGGSDGTSPL [KLHL20] | 2.86 ± 0.64 | 2.85 ± 0.51 |  | 
66 | EGVKRYEQEHAAIQDKLFQVAKRE [CHCHD6] | 4.84 ± 0.32 | 4.78 ± 0.24 |  | 
67 | NSWMGSQGPMSQRRENYGVPPRRA [RBMY1A1] | 4.65 ± 0.26 | 4.28 ± 0.16 |  | 
68 | SGQYRELGGAIDFGAAYVLEQASS [ATL3] | 3.47 ± 0.27 | 3.61 ± 0.41 |  | 
69 | GKAYRFLFGFSAVSIMYLVLVLAV [JAGN1] | 2.22 ± 0.1 | 2.12 ± 0.35 |  | 

Row | Sequence | protein stability index [1] | protein stability index [2] | protein stability index (treatment: DMSO, c terminus: native) | protein stability index (treatment: MLN4924 1 uM, 8 h, c terminus: native)
70 | VGDLMSPFDQSGLGAEESLGLLDD [ATF4] | 5.17 ± 0.27 | 4.89 ± 0.28 |  | 
71 | PERLCSGPGIVGNVLVDPSARIGQ [GMPPB] | 3.92 ± 0.27 | 3.89 ± 0.22 |  | 
72 | ECKQLSESQVKSLCEKAKEILTKE [PPP2CA] | 4.64 ± 0.2 | 4.82 ± 0.18 |  | 
73 | LGSPQHSPSTRGSPNRSLPSPGVL [ATF4] | 4.45 ± 0.23 | 4.45 ± 0.22 |  | 
74 | SQQQNMMQDYVRTGTYQRAILQNH [CARM1] | 3.21 ± 0.27 | 3.12 ± 0.23 |  | 
75 | MTTDFDLSLDNSPLLQSIHQLDFV [TRIM9] | 2.7 ± 0.33 | 2.71 ± 0.24 |  | 
76 | RAACFDGHLEIVKYLVEHKADLEV [FEM1C] | 2.59 ± 0.31 | 2.66 ± 0.58 |  | 
77 | CGGYNGEVILGDIWKLNLQTFQWV [KLHDC10] | 2.44 ± 0.85 | 2.11 ± 0.71 |  | 
78 | LVVDYIDEGRLVLEFSLLSYAFGK [SOAT1] | 3.29 ± 0.8 | 3.17 ± 0.48 |  | 
79 | ESIESYDSCDRLTQSWSSQSSFNS [ETS1] | 3.91 ± 0.34 | 4.1 ± 0.3 |  | 
80 | TQYVRHSSDPFYTPEPDTCHELLG [TPH1] | 3.63 ± 0.35 | 4 ± 0.32 |  | 
81 | GPALPNGPLLGTNGATDDSKTNLI [ELAVL3] | 4.99 ± 0.17 | 4.93 ± 0.33 |  | 
82 | TAWTEACQVEVRLLLAYNSSARIP [INTS4] | 3.03 ± 0.4 | 2.43 ± 0.49 |  | 
83 | TASLLLCPGGLDHKLNLRGKAWG [TIAF1] |  |  | 2.98 ± 0.22 | 2.59 ± 0.67
84 | SRESSKPRAVLKPRRVCVGGKRRR [PPP2R2C] | 4.94 ± 0.33 | 4.87 ± 0.19 |  | 
85 | SHAIHVEEQSDQSFSSLEPDNEQL [IQUB] | 5.38 ± 0.27 | 5.63 ± 0.17 |  | 
86 | STNEEEKEENEAESDVKHRTRDYK [PRIM1] | 5.57 ± 0.17 | 5.16 ± 0.47 |  | 
87 | DPGHCFAESRELPVRCAGDWLPRG [ALG2] | 3.1 ± 0.38 | 3.05 ± 0.25 |  | 
88 | AAAALFGGKKDKARYIDTHNRVSK [PLK2] | 3.37 ± 0.22 | 3.14 ± 0.39 |  | 
89 | QVDPGTDLEPGVLMSAQTITSETT [EPB41L3] | 5.21 ± 0.32 | 5.16 ± 0.13 |  | 
